Data set [1] is described as follows: Isoelectric point (pI) of the polypeptides. It counts as physicochemical.
Text: By comparing the sequences and components of the various polypeptides, the effect of a particular structural modification on isoelectric point (a higher pI favors outer membrane penetration) and activity (as assessed by MIC) can be determined.
Data set [2] concerns P. aeruginosa strain WC-453. Description: Time-kill assay in HEPES or CAA with 25% human serum (Tables 7, 8). It counts as cell-based, Pseudomonas aeruginosa. The following applies: for HEPES (Log10 CFU/mL), 1 hr / HEPES (Log10 CFU/mL), 3 hr: 25 mM HEPES pH 7.4; for HEPES (Log10 CFU/mL), 1 hr / HEPES (Log10 CFU/mL), 3 hr / CAA/HuS (Log10 CFU/mL), 1 hr / CAA/HuS (Log10 CFU/mL), 3 hr: lysin 10 μg/ml, WC-453; for CAA/HuS (Log10 CFU/mL), 1 hr / CAA/HuS (Log10 CFU/mL), 3 hr: CAA + 25% human serum. On the procedure: Exponential phase bacteria were then pelleted and resuspended in 1/5 culture volume of 25 mM HEPES, pH 7.4 before a final adjustment to an optical density corresponding to a McFarland value of 0.5. […] All treatments were incubated at 37° C. with aeration. At time points before the addition of lysin (or buffer control) and at 1 hour and 3 hours intervals thereafter, culture samples were removed for quantitative plating on CAA agar plates.

Data set [3] relates to carbepenam-resistant clinical isolate WC-453. Kind of data set: MIC in CAA without or with 25% human serum (Table 5). It is filed as cell-based, Pseudomonas aeruginosa. The settings on record: for CAA/HuS MIC: CAA supplemented with 25% human serum. On the procedure: MIC values were determined using a modification of the standard broth microdilution reference method defined by the Clinical and Laboratory Standards Institute (CLSI), CLSI. […] Methods for Dilution Antimicrobial Susceptibility Tests for Bacteria That Grow Aerobically; Approved Standard-10th Edition. Clinical and Laboratory Standards Institute, Wayne, Pa.

The subject of data set [4] is P. aeruginosa strains. Kind of data set: Checkerboard synergy with meropenem in 25% CAA and […] human serum (Table 16). It is filed as cell-based, Pseudomonas aeruginosa. The following applies: for FICI value (Run #1), with meropenem / FICI value (Run #2), with meropenem: 25% CAA and […] human serum.
Data set [5] concerns biofilms formed by P. aeruginosa strain ATCC 17646. The following applies: strain ATCC 17646 biofilm. On the procedure:
(§1) Biofilms are then washed and treated with e.g., a 2-fold dilution series of the lysin in TSBg at e.g., 37° C. for 24 hours. After treatment, wells are washed, air-dried at e.g., 37° C. and stained with e.g., 0.05% crystal violet for 10 minutes.

Data set [6] concerns P. aeruginosa. Kind of data set: MIC, modified CLSI broth microdilution in CAA medium without or with […] human serum (Table 4). On CAA/HuS MIC: CAA supplemented with 2.5% human serum. It counts as cell-based, Pseudomonas aeruginosa. From the text: 2015. […] Clinical and Laboratory Standards Institute, Wayne, Pa.
Data set [7] concerns Pseudomonas aeruginosa strain CFS-1292 (meropenem resistant). Kind of data set: MIC in 25% CAA alone, with […] human serum or […] SURVANTA (Table 13). It is filed as cell-based. On the procedure: (§2) Materials and methods: MICs were determined by broth microdilution in media supplemented with human serum and pulmonary surfactant ([…]®; Myoderm Clinical Supplies). Minimal biofilm eradicating concentrations (MBECs) were determined using standard methods. […] Fluorescence microscopy was performed after LIVE/DEAD staining (ThermoFisher) and TEM was performed.

The test system of data set [8] is Pseudomonas aeruginosa biofilm. Kind of data set: MBEC in CAA supplemented with […] human serum (Table 14). It is filed as cell-based. On the procedure:
as §1, §2

For data set [9], the system named is carbapenem-resistant P. aeruginosa strains. Kind of data set: Resensitization of carbapenem-resistant strains, combinations with imipenem or meropenem (Tables 18-22). It counts as cell-based, Pseudomonas aeruginosa. The following applies: for FICI: isolate WC-452.
Data set [10] has as its system outer membrane of P. aeruginosa (CFS 1292). Kind of data set: N-phenyl-1-napthylamine (NPN) uptake assay, outer membrane destabilization (Table 15). The following applies: NPN fluorescence, buffer = 100, lysin 100 μg/well. It counts as cell-based, Pseudomonas aeruginosa. How it is done:
The ability of gram-negative lysins to destabilize the outer membrane of P. aeruginosa was evaluated through the use of an N-phenyl-1-napthylamine (NPN) uptake assay. […] NPN was added to a final concentration of […]. […] Changes in fluorescence were recorded (excitation 1=350 nm; emission 1=420 nm) over two hours.

For data set [11], the system named is Pseudomonas aeruginosa strain CFS-1292 (meropenem resistant). The following applies: strain CFS-1292; no added cations. On the procedure:
The activity of selected GN lysins and constructs in the presence of divalent cations was evaluated, and the impact of divalent cations at physiological concentrations was examined in the MIC assay format.

Data set [12] has as its system P. aeruginosa isolates. Description: MIC against a range of isolates in CAA + […] human serum (Table 11). It is filed as cell-based, Pseudomonas aeruginosa.

B1: GN11: lysin obtained from Pseudomonas putida KT2440 (SEQ ID NO: 208) (protein, listed as Pseudomonas putida)
chain: MTYNAGTKPRAETDYLVVHCSATRPSQDIGAADINRWHRAKGWRCIGYHFVIRRNGVVEEGRELDQIGAHVEGHNINSVGICMAGGVTEADINVPENNFTPEQFASLKHLLGELKEKYPSATIQGHRDFPKVAKACPSFDVKPWVAANL
With B1, the “pI (isoelectric point)” value in data set [1] turned out to be 7.3. Moreover, in data set [2], the “HEPES (Log10 CFU/mL), 1 hr” value is listed as 6.7 Log10 CFU/mL and the “HEPES (Log10 CFU/mL), 3 hr” value is given as less than 3.7 Log10 CFU/mL. In addition, in data set [3], the “activity in CAA supplemented with human serum (25%)” value was “active”, the “CAA MIC” value stood at 32 and the “CAA/HuS MIC” value amounted to 128.

B2: GN7: lysin obtained from a marine metagenome (SEQ ID NO: 206) (protein)
chain: MTPFDHALELTLGLEGGYSNHLMDRGGETMCGITEAVARRHGWEGEMRDLPIEMVRHIYKVDYWDPLMGDYLGEHNPELAEELFDTAVNCGVGFASKILQKSINVLNRNRTEDIAEDGQIGPQTLKALRDLARRDYDYLLECCKILQGNHYISLAHRDPTQRIFIRGWLTRV
modifications: GOS_4958713 hypothetical protein GOS_4958713, partial [marine metagenome]
In the case of B2, the “pI (isoelectric point)” value in data set [1] was 5.6. In [2], the “HEPES (Log10 CFU/mL), 1 hr” value was determined as 7.5 Log10 CFU/mL; the “HEPES (Log10 CFU/mL), 3 hr” value stood at 6.2 Log10 CFU/mL; the “CAA/HuS (Log10 CFU/mL), 1 hr” value was determined as 7.0 Log10 CFU/mL; the “CAA/HuS (Log10 CFU/mL), 3 hr” value was 7.0 Log10 CFU/mL. In data set [3], the “activity in CAA supplemented with human serum (25%)” value is “active”, the “CAA MIC” value is reported as more than 128 and the “CAA/HuS MIC” value amounted to 128.

B3: GN428: lysin obtained from Escherichia virus CBA120 (SEQ ID NO: 60) (protein, listed as Escherichia virus)
chain: MAILKLGNRGSEVKALQQSLNKIGFSLTADGIFGKATENAVKSVQAGAGLVIDGIAGPKTFYAIRNAGDAHQEHLTEADLVDAARELGVELASMKAVNQVESRGTGFTKTGKIKTLFERHIMYKKVTAKFGQARANALYQLYPTLVNPNSGGYIGGDAELERLQGAIALDEDCAYESASYGLFQIMGFNCQICGYSNAKEMFTDFLTGERAHLLAFVKFIKADANMWKALKNKNWAEFARRYNGPAYAKNQYDTKLAAAYKSFC
Regarding B3, in [4] (FICI less than or equal to 0.5 = potent synergy), the synergy with meropenem result was “exhibited synergy with meropenem”. The “FICI value (Run #1), with meropenem” value worked out at 0.1875 in data set [4] (strain CFS 1292), 0.1562 in data set [4] (strain CFS 1557 (PA19)) and 0.09375 in data set [4] (strain CFS 1558 (PA20)). The “FICI value (Run #2), with meropenem” value is given as 0.219 in data set [4] (strain CFS 1292); 0.198 in [4] (strain CFS 1557 (PA19)); 0.135 in data set [4] (strain CFS 1558 (PA20)); 0.396 in [4] (strain CFS 1559 (PA21)); 0.229 in data set [4] (strain CFS 1560 (PA22)); 0.323 in data set [4] (strain CFS 1561 (PA23)). Also, the “FICI value (Run #2), with meropenem” value in data set [4] (strain CFS 1562 (PA24)) is recorded as 0.198; in [4] (strain CFS 1766 (ATCC 27853)), 0.156. The MBEC in data set [5] was 1 µg/mL. Further, in data set [6] (CAA medium, no human serum), the “CAA MIC” value worked out at 8000 µg/mL. In data set [6] (CAA supplemented with […] human serum), the “CAA/HuS MIC” value worked out at 125 µg/mL. For the same molecule, in data set [7], the “MIC in […] Survanta” value is 4 µg/mL. In addition, in data set [7], the “MIC in human serum ([…]) in CAA” value is 0.125 µg/mL. The “activity in human serum and pulmonary surfactant” value in data set [7] was “active in human serum and pulmonary surfactant”. In addition, the “25% CAA MIC” value in data set [7] (media alone) amounted to 4. Besides, the “MBEC in CAA supplemented with […] human serum” value in [8] turned out to be 1 µg/mL. Moreover, in data set [9] (imipenem (IPM) and meropenem (MEM), carbapenem-resistant isolates), the “resensitization to carbapenems in synergistic combinations” value was “reductions of IPM and MEM MICS to below breakpoint values”. For the same molecule, the FICI in [9] (lysin + imipenem) and in [9] (lysin + meropenem) was 0.188 each time. Moreover, the “Antibiotic MIC / Lysin MIC, Alone” value in data set [9] (vs. WC-452 (Table 22)) is 2. In addition, the “% RFU” value in data set [10] (5 minutes) was found to be 194 % RFU; in [10] (10 minutes), 242 % RFU; in data set [10] (20 minutes), 271 % RFU; in [10] (40 minutes), 250 % RFU; in data set [10] (60 minutes) it was 183 % RFU; in [10] (100 minutes) it was 137 % RFU. For the same molecule, the “MIC in 25% CAA” value in data set [11] worked out at 4 µg/mL. Moreover, the “bactericidal activity (CFU decrease of 3-Log10, 3 hours after the addition of lysin)” value in data set [2] (10 μg/mL, enumerated lysins in CAA/HuS, general statement for HEPES and CAA/HuS) is on record as “bactericidal activity”. In data set [2], the “CAA/HuS (Log10 CFU/mL), 1 hr” value was determined as 5.5 Log10 CFU/mL. In addition, the “CAA/HuS (Log10 CFU/mL), 3 hr” value in data set [2] is recorded as less than 3.7 Log10 CFU/mL. Besides, the “activity against P. aeruginosa isolates in human serum or SURVANTA” value in [12] (Tables 11 and 12) is “active against a variety of P. aeruginosa isolates”. Besides, the “MIC, CAA + […] Human Serum” value stood at 1 µg/mL in [12] (strain CFS 1109 (ATCC 17646)); 2 µg/mL in [12] (strain CFS 1292); 1 µg/mL in data set [12] (strain CFS1539 (PA1)); 1 µg/mL in data set [12] (strain CFS 1540 (PA2)); 1 µg/mL in data set [12] (strain CFS 1541 (PA3)); 4 µg/mL in data set [12] (strain CFS 1557 (PA19)). For the same molecule, the “MIC, CAA + […] Human Serum” value in data set [12] (strain CFS 1558 (PA20)) was 2 µg/mL; in data set [12] (strain CFS 1559 (PA21)), 2 µg/mL; in data set [12] (strain CFS 1560 (PA22)), 2 µg/mL; in data set [12] (strain CFS 1561 (PA23)) it was 2 µg/mL; in data set [12] (strain CFS 1562 (PA24)), 2 µg/mL; in data set [12] (strain CFS 1596 (PA26)), 1 µg/mL. Also, the “MIC, CAA + […] Human Serum” value in data set [12] (strain CFS 1597 (PA27)) stood at 0.5 µg/mL; in data set [12] (strain CFS 1669 (PA41)), 2 µg/mL; in data set [12] (strain CFS 1674 (PA46)), 2 µg/mL; in data set [12] (strain CFS 1675 (PA47)), 1 µg/mL; in [12] (strain CFS 1766 (ATCC 27853)) it was 4 µg/mL.

Source of the values: patent US20210324359A1, “USE OF GRAM-NEGATIVE LYSIN-ANTIMICROBIAL PEPTIDE (AMP) POLYPEPTIDE CONSTRUCTS IN TREATING ENDOCARDITIS” (priority 2020, published 2021).
